Data published in PMC3105431.

What was measured:
U2AF65 = U2AF65 (human, UniProt P26368 1-475); assay: EMSA
U2AF65;U2AF35 = U2AF65;U2AF35 (human;human, UniProt P26368;Q01081 1-475;1-240, |); assay: EMSA
Sequence of U2AF65;U2AF35 (P26368 whole entry, chain 1 of 2): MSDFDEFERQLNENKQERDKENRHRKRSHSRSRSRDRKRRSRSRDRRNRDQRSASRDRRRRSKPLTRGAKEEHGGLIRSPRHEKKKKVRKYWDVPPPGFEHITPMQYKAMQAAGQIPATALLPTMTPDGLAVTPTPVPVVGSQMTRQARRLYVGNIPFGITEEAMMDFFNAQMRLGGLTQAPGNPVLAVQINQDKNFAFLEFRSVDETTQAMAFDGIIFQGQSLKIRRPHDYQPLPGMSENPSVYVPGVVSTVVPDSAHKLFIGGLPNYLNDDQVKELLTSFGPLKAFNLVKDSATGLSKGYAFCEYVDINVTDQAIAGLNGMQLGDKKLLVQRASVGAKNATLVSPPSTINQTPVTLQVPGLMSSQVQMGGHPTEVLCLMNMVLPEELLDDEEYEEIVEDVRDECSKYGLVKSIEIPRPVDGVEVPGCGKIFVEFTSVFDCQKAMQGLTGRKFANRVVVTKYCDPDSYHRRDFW
Sequence of U2AF65;U2AF35 (Q01081 whole entry, chain 2 of 2): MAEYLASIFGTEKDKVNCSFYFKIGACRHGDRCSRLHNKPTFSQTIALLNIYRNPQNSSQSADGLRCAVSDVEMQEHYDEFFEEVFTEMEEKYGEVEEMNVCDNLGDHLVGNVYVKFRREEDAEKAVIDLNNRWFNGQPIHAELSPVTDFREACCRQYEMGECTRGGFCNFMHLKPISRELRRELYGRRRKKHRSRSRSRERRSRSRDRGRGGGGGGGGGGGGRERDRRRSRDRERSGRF

Sequence of U2AF65 (P26368 whole entry, one chain of several): as the sequence (P26368 whole entry, chain 1 of 2) above

Which results are given for GGGAGACAGGCUUACGCAUUCGUCUAUCUUUCGCAUAGUUUGGUCCA (ssRNA) [FECH mutant (PT, E+1 G>U)]?
binding result (U2AF65): no binding; binding result (U2AF65;U2AF35): no binding
